Common to all, as to conditions: LightShift Chemiluminescent EMSA kit (binding buffer, salt and pH not given), 20 min room temperature; 20 fmol probe, 6% 0.5x TBE gel (TtdV/TtdW); 50 fmol …
The subject of series [1] is T1, His6-ArcA (unphosphorylated) (Salmonella enterica serovar Typhimurium IR715 (ATCC14028 NalR)), ORF:c309dbee.
T1 sequence: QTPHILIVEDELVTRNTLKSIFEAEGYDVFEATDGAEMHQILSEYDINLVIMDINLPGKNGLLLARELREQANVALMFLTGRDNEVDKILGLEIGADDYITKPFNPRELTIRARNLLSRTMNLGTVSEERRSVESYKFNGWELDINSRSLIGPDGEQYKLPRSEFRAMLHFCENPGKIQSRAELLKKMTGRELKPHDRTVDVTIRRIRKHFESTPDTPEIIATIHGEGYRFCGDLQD
Put plainly: EMSA.

Series [2] deals with T2, His6-ArcA~P (Salmonella enterica serovar Typhimurium IR715 (ATCC14028 NalR)), ORF:c309dbee.
T2 sequence: T1 sequence
Put plainly: EMSA.

Series [3] concerns the target T3, TtdV-His6 (Salmonella enterica serovar Typhimurium IR715 (ATCC14028 NalR)) (UniProt Q8ZLP8).
T3 sequence: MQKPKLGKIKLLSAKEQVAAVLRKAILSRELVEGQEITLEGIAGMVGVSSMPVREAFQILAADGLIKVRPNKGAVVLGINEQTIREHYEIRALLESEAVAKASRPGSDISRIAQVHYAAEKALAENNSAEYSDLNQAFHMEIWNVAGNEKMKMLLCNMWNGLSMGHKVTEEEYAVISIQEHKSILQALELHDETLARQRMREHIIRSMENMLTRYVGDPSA
Put plainly: EMSA.

Series [4] concerns T2, His6-ArcA~P (Salmonella enterica serovar Typhimurium IR715 (ATCC14028 NalR)), ORF:c309dbee. Put plainly: competition.
In series [5] the target is T4, TtdW-His6 (Salmonella enterica serovar Typhimurium IR715 (ATCC14028 NalR)) (UniProt Q8ZLP7).
T4 sequence: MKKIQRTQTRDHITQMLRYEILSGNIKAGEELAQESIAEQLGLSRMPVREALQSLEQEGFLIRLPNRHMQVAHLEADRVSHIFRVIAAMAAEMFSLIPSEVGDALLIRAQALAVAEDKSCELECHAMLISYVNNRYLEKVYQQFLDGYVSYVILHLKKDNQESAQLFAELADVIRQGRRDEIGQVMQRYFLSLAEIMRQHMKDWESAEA
Put plainly: competition.

In series [6] the target is T4, TtdW-His6 (Salmonella enterica serovar Typhimurium IR715 (ATCC14028 NalR)). Put plainly: EMSA.

Regarding “ACCGAAGAAGAGTATGCCGTGATTTCCATTCAGGAACATAAAAGTATTCTGCAAGCTCTTGAACTTCATGATGAAACATTGGCACGCCAGCGCATGCGCGAACACATTATTCGCTCAATGGAGAATATGCTGACCCGCTATGTTGGTGACCCTTCTGCCTGATCTTTTCGCCTGCGTGAGCATCGCAGGCGCTTCAACCAATTCTTCAATTCTATTAATCACGTCCAGTAACGATCTAACCACGATCTTGATGTAGC (double strand) [Probe 3]”, the binding entry in series [1] is listed as “binds”; in series [2], “binds”; in series [3] it was “no binding”.
Take “CCTAACTCGGCGGAATACTCCGACCTGAATCAGGCATTTCATATGGAAATATGGAATGTTGCTGGCAACGAAAAAATGAAAATGTTGCTCTGTAATATGTGGAACGGCCTGTCGATGGGCCATAAGGTCACCGAAGAAGAGTATGCCGTGATTTCCATTCAGGAACATAAAAGTATTCTGCAAGCTCTTGAACTTCATGATGAAACATTGGCACGCCAGCGCATGCGCGAACACATTATTCGCTCAATGGAGAATATGCTGACCCGCTATGTTG (double strand) [Probe 2]”: the binding result in series [1] is “binds”; in series [2] it was “binds”; in series [3], “no binding”.
On to “CGTATGCTGACCCGCTATGTTGGTGACCCTTCTGCCTGATCTTTTCGCCTGCGTGAGCATCGCAGGCGCTTCAACCAATTCTTCAATTCTATTAATCACGTCCAGTAACGATCTAACCACGATCTTGATGTAGATCCCACTCCTGCATCTTTCCTGAGAAACGATTTGACTTAGTTTTTGTATGGGAATAATTTCTCCCTGTCAACATTGGATACAATATCATATATCATTGATTGGATAATTATAAATATGGAACCCATTACCCTTACCTTATGTTTATTGGTGTTCGCCC (double strand) [Probe 4 unlabeled competitor]”, for which the binding entry in series [4] and in series [5] was “binds” each time.
On to “CGTATGCTGACCCGCTATGTTGGTGACCCTTCTGCCTGATCTTTTCGCCTGCGTGAGCATCGCAGGCGCTTCAACCAATTCTTCAATTCTATTAATCACGTCCAGTAACGATCTAACCACGATCTTGATGTAGATCCCACTCCTGCATCTTTCCTGAGAAACGATTTGACTTAGTTTTTGTATGGGAATAATTTCTCCCTGTCAACATTGGATACAATATCATATATCATTGATTGGATAATTATAAATATGGAACCCATTACCCTTACCTTATGTTTATTGGTGTTCGCCC (double strand) [Probe 4]”, for which the binding entry in series [1], in series [2] and in series [6] was “binds” each time.
On to “GCCTTCTTCGGTGACCTTATGGCCCATCGACAGGCCGTTCCACATATTACAGAGCAACATTTTCATTTTTTCGTTGCCAGCAACATTCCATATTTCCATATGAAATGCCTGATTCAGGTCGGAGTATTCCGCCGAGTTATTTTCCGCGAGAGCCTTTTCAGCGGCATAATGCACCTGGGCTATCCGCGAGATATCGGAGCCAGGACGAGAAGCTTTAGCCACCGCCTCACTTTCTAACAGCGCGCGAATTTCATAGTGTTCACGGATGG (double strand) [Probe 1]”, for which the binding entry is given as “binds” in series [1], “binds” in series [2] and “no binding” in series [3].

These data come from PMC11237755.
